Results from PMC12299905, “Pathogen Enzyme-Mediated Alkoxyamine Homolysis as a Killing Mechanism of Aspergillus fumigatus” (Journal of Fungi, 2025).
Converted amounts (≈) assume the structure as drawn.

Columns and labels:
[1] = Homolysis kinetics / stability of alkoxyamines by EPR; assay type: physicochemical; details: for activation energy Ea of homolysis: from kd by Arrhenius law
Description: Homolysis constants were measured by Electronic Paramagnetic Resonance (EPR) on a EMX Bruker spectrometer, with O2 as the alkyl radical scavenger, as previously reported. Thermic activation led to the liberation of nitroxide: (2,2,6,6-tetramethylpiperidin-1-yl)oxyl (TEMPO). The details of the kinetic experiments in aqueous or solvent phases and the values of homolysis rate constants (kd), activation energies (Ea), and half-life times (t1/2) are reported in Supplementary Information and Data (see below).
Indeed, the activation energies of these alkoxyamines range from 121 to 140 kJ/mol with half-life times longer than 10 days (Supplementary Table S1). Moreover, the values were measured for a mixture of the two diastereoisomers. […] The solvent effect (i.e., t-BuPh) versus H2O/1-PrOH (99:1) was also investigated. […] Overall, there is no stability concern for these molecules with respect to the subsequent biological studies.
EPR kinetic figures of homolysis rate constants ( kd), activation energies ( Ea) and half-life
Molecule Solvent T (°C)a kd (s-1)b,c Ea (kJ·mol-1)d t1/2(37 °C) (days)

[2] = tested on: Ku80 azole-susceptible strain; assay: Exposure of A. fumigatus spores to alkoxyamines, azole-susceptible strain; assay type: cell-based; details: Aspergillus fumigatus
Description: (§1) Ku80 azole-susceptible strain and FC240 azole-resistant strain were kindly provided by Prof. J.-P. Latge and Dr E. Fréalle (Lille University Hospitals, Lille, France). The latter strain harbors a 34 bp tandem repeat mutation (TR34) in the cyp51A gene promoter combined with a substitution in codon L98H. The strains of A. fumigatus were used for spore preparation as previously described. Briefly, spores were grown from frozen stocks on Sabouraud + Chloramphenicol agar tubes (BioMérieux, Marcy l’Etoile, France) at 37 °C for 7 days. Next, conidia were collected by scraping and suspending in PBS containing 0.01% Tween 20 (Sigma-Aldrich®, St. Louis, MO, USA). Spore counting was performed using a Kova® hemacytometer, and aliquots of 10^6 spores were prepared.
(§2) A. fumigatus spores were exposed to various concentrations of alkoxyamines (1, 10, 100, and 1000 µM), with each concentration in triplicate. Controls were grown alone (without alkoxyamine treatment) or exposed to the antifungal voriconazole under the same experimental conditions. Briefly, the reactions were performed in well plates in a total volume of 250 μL RPMI medium. At the end of the incubation time period (48 h), the optical densities (OD600 nm) of scrapped cultures were recorded in one set of the reactions using a spectrophotometer (Thermo Fisher Scientific, Illkirch, France). […] Experiments were repeated at least three times.

[3] = tested on: FC240 azole-resistant strain; assay: Exposure of A. fumigatus spores to alkoxyamines, azole-resistant strain; assay type: cell-based; details: Aspergillus fumigatus
Description: as §1, §2

[4] = t-BuPh, mixture of two diastereoisomers
[5] = H2O/1-PrOH 99:1, extrapolated to 37 °C
[6] = t-BuPh/DCM 99:1, extrapolated to 37 °C

Compound | activation energy Ea of homolysis [1, 4] | half-life time t1/2 (37 °C) of homolysis [1, 6] | activation energy Ea of homolysis ([1]; t-BuPh/DCM 99:1) | other results
CC(ON1C(C)(C)CCCC1(C)C)c1ccc(NC(=O)[C@@H]2CCCN2C(=O)OC(C)(C)C)cc1 (stereo partly shown) [compound 2] | 32.93 kcal/mol |  |  | half-life time t1/2 (37 °C) of homolysis ([1]; t-BuPh, extrapolated to 37 °C): 5395 days
CC(ON1C(C)(C)CCCC1(C)C)c1ccc(NC(=O)[C@@H]2CCCN2C(=O)CNC(=O)CCC(=O)O)cc1 (stereo partly shown) [VIa] |  | 1519 days | 32.15 kcal/mol | half-life time t1/2 (37 °C) of homolysis [1, 5]: 10 days; activation energy Ea of homolysis ([1]; H2O/1-PrOH 99:1): 29.06 kcal/mol
CC(ON1C(C)(C)CCCC1(C)C)c1ccc(NC(=O)[C@@H]2CCCN2C(=O)CNC(=O)OCC2c3ccccc3-c3ccccc32)cc1 (stereo partly shown) [4a] | 33.34 kcal/mol |  |  | 
CC(ON1C(C)(C)CCCC1(C)C)c1ccc(NC(=O)[C@@H]2CCCN2C(=O)[C@H](C)NC(=O)OCC2c3ccccc3-c3ccccc32)cc1 (stereo partly shown) [4b] | 33.15 kcal/mol |  |  | 
CC(ON1C(C)(C)CCCC1(C)C)c1ccc(NC(=O)[C@@H]2CCCN2)cc1 (stereo partly shown) [compound 3] |  | 2554 days | 32.48 kcal/mol | 
C[C@@H](c1ncncc1F)[C@](O)(Cn1cncn1)c1ccc(F)cc1F [voriconazole] |  |  |  | MIC [2]: 0.25 µg/mL (≈ 0.716 µM); MIC [3]: 4 µg/mL (≈ 11.5 µM)
CC(ON1C(C)(C)CCCC1(C)C)c1ccc(NC(=O)[C@@H]2CCCN2C(=O)[C@H](C)NC(=O)CCC(=O)O)cc1 (stereo partly shown) [VIb] |  | 3632 days | 32.7 kcal/mol | half-life time t1/2 (37 °C) of homolysis [1, 5]: 199 days; activation energy Ea of homolysis ([1]; H2O/1-PrOH 99:1): 30.9 kcal/mol
